Results on 11 sequences are retold here after the supplement of paper PMC9170038.

In data set [1] the test system is MS2 coat protein. The data set is described as follows: apparent KD of MS2 coat protein; designed switch direction (-1 OFF switch, 1 ON switch): -1; higher = weaker reporter binding. As to conditions: Eterna round: R98. The protocol: (§1)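 RNA-MaP: designed FMN/MS2 RNA switches (84 nt design region) are transcribed on-chip within common flanks and titrated with SNAP-549-labelled MS2 coat protein (about 1-3000 nM) in 100 mM Tris pH 7.5, 80 mM KCl, 4 mM MgCl2, without or with 200 uM FMN. Median apparent KD per design; activation ratio = KD,OFF / KD,ON.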

Data set [2] deals with MS2 coat protein. Briefly: apparent KD of MS2 coat protein; designed switch direction (-1 OFF switch, 1 ON switch): 1; higher = weaker reporter binding. As to conditions: Eterna round: R98. The protocol: as §1

In the case of “AAAAUAAAGGCAGGAUAUACAUGAAUAAAUAAAAUAAUAUAAAAUAAAACAUGAGGAUCACCCAUGUAGAAGGGCCAAAAUAAA [LRO022_Exclusion NG 2]”, the figures for the “apparent KD of MS2 coat protein” value in the data set with MS2 coat protein [1] (input ligand: FMN 200 uM) and with MS2 coat protein [1] (input ligand: none) were 187 nM and 83.3 nM, respectively.
The like results for “AGCGGUGCGUGUGUUGUGACACAUGAGGAUCACCCAUGUAGGAAGGAUAUGCAGUUGGGCACGCGGCAGAAGGUCCGACAUGGA [Riuscein]” were, in that order, 58.6 nM and 529 nM.
For “GCGUGUGGAUCAGGAUAUUACAUGAGGAUCACCCAUGUAGGCAUGAGGGUCACCCGUGUUGUGUGUAAGAAGGGAUCGCCCGUG [Exclusion2]”, the “apparent KD of MS2 coat protein” value is 74.1 nM in the data set with MS2 coat protein [1] (input ligand: FMN 200 uM) and 46 nM with MS2 coat protein [1] (input ligand: none).
On to “GCUGCUAUCGCAGGAUAUUACAUGGGAAAGAAUACAUGAGGAUCACCCAUGUAAAAGAUCGUAAAUAAGAAGGGCGAUAGCAGC [Lame State 5 - Jieux - Same State NG 2]”, for which the “apparent KD of MS2 coat protein” value in the data set with MS2 coat protein [2] (input ligand: FMN 200 uM) is 353 nM; in the data set on MS2 coat protein [2] (input ligand: none) it was 329 nM.
For “GCUUGCGACGCAGGAUAUGGGUGCCUAAACACGAGGAUCACCCGUGUACAGGAAGCGAAAAGCUCUCAGAAGGGCGUCGCAGGC [United States 8 - Jieux - Same State NG 2]”, in that order: 17.2 nM and 22.6 nM.
“GGACUCACUUGAGGAUAUCGAGUGGAAUACACUCGAGAAGGCAGGGAAACCUGAGGAUCACCCAGGUAAGAGUCCAAUAAUAAA [Same State NG1 - A3C, U17G Submission 2C]”: the “apparent KD of MS2 coat protein” value with MS2 coat protein [2] (input ligand: FMN 200 uM) came out at 18.7 nM; in the data set on MS2 coat protein [2] (input ligand: none), 43.4 nM.
Take “GGACUCACUUGAGGAUAUCGAGUGGAUAACACUCGAGAAGGCAGGAAAACCUGAGGAUCACCCAGGUAAGAGUCCAAUAAUAAU [Same State NG1 - A3C, U17G Submission 3D]”: the figures for the “apparent KD of MS2 coat protein” value in the data set on MS2 coat protein [2] (input ligand: FMN 200 uM) and in the data set on MS2 coat protein [2] (input ligand: none) were 14.4 nM and 13.2 nM, respectively.
The like results for “GGAUCCAUCACAGGAUAUGCUGGACUUUGUCCAGCAGAAGGGUGAAACAUGAGGAUCACCCAUGUAAAGGAUCCUAUAUUUAAU [Denovo 26]” were, in that order, 34.3 nM and 291 nM.
Turning to “GUAGCAUACCGAGGAUAUUCAUAUAAUAAAUAAACAUGAGGACCACCCAUGUGGCGAAAGCCUUGGGAGAAGGCGGAAUGCUAC [Xeonanis 20 - mod55 1]”, the “apparent KD of MS2 coat protein” value in the data set with MS2 coat protein [2] (input ligand: FMN 200 uM) worked out at 70.9 nM.
For “GUAGCUAUCGCAGGAUAUCCUCAGGCGAAAGCCACAUGAGGAUCACCCAUGUAAUUAAAGAAAUUGGAGAAGGGCGAUAGCUAC [jl-sng2-2.38 Eli mod]”, the results for the “apparent KD of MS2 coat protein” value with MS2 coat protein [2] (input ligand: FMN 200 uM) and in the data set with MS2 coat protein [2] (input ligand: none) were 36.4 nM and 571 nM, respectively.
For the sequence “GUAGCUAUCGGAGGAUAUUCAUAGCGGAAACGCACAUGAGGAUCACCCAUGUGGCGAAAGCCUUGGGAGAAGGCCGAUAGCUAC [jl-sng2-2.30 Eli mod]”, the “apparent KD of MS2 coat protein” value in the data set on MS2 coat protein [2] (input ligand: FMN 200 uM) stood at 17.7 nM; in the data set with MS2 coat protein [2] (input ligand: none), 99.3 nM.
